In publication PMC12269843 (2025) one finds IC50 data, which are given here for one molecule.

Where no end group is shown, it is not given here. [ ]: non-standard residue; d: D form. Cit = NC(=O)NCCC[C@H](N)C(=O)O

This test deals with HLA-DRB1*04:05 protein (human). The test is described as follows: FP.

Broadly, the IC50 is the concentration that gives 50% inhibition. Lower therefore signals greater potency in that assay. Regarding D[Cit]Y[Cit]LNYSLPTG [TNC1014,1016cit peptide], the IC50 amounted to 4.81 µM.
